The target in assay [1] is T1, human transferrin receptor (hTfR) fused to EGFP, on CHO cells (human, UniProt P02786 1-760).
T1 construct: whole, on cells; also called human TfR; CHO-hTfR-EGFP; not shown: EGFP from pEGFP-C1 vector, fused to the N-terminal (intracellular) end of hTfR
Kind of assay: flow cytometry on CHO-hTfR-EGFP cells, 1 hr at 4 C, anti-6His + Alexa647 anti-mouse; ratio to background fluorescence. Background: In flow cytometry, cells or beads pass a laser one at a time.

In assay [2] the target is T2, murine TfR expressed by murine neuroblastoma Neuro-2a cells (mouse, UniProt Q62351 1-763).
T2 construct: whole, on cells; also called mTfR (N2a cells)
T2 sequence (Q62351 whole entry): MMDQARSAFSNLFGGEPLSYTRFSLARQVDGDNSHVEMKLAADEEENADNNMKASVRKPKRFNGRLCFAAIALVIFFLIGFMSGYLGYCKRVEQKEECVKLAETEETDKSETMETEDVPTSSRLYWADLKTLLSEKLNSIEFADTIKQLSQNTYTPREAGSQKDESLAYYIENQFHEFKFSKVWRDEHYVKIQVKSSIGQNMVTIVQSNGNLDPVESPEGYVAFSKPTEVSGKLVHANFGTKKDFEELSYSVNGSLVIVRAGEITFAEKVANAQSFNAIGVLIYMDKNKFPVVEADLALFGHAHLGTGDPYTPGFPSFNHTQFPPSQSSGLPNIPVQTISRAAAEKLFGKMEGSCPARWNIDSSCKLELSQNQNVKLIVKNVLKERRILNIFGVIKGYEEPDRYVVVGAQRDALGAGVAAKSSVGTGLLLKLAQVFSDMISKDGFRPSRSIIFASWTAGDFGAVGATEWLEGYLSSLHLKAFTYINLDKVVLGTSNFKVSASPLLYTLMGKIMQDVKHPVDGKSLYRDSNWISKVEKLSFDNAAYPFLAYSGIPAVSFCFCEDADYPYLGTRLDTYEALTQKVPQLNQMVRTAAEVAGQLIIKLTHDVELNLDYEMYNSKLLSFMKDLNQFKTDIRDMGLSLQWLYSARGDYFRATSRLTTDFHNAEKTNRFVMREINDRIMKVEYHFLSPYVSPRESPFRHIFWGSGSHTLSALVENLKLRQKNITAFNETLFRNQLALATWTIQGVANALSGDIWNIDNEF
Kind of assay: competition with C5-Alexa680 (100 nM) on living Neuro-2a cells, 3 hrs at 37 C, flow cytometry; Ki/app, mean ± SD. How it is done:
The binding of VHH-Oligo and VHH-hFc-Oligo conjugates to mTfR was evaluated using a competition assay on living cells expressing the receptor of interest, namely murine neuroblastoma Neuro-2a cells (N2a). N2a cells were grown in Dulbecco's Modified Eagle Medium (DMEM) GlutaMAX supplemented with 10% v/v FBS in 5% CO₂ at 37° C. Cells were seeded two days before experiments in 96-well plates at a density of 50.000 cells/well. […] Resuspended cells were transferred in a 96-deepwell plate (V-bottom) containing 1% fetal bovine serum (FBS)/0.02% sodium azide in phosphate-buffered saline (PBS) and then centrifuged for 5 min at 2000 rpm at 4° C. After removing the supernatant, 5 mM EDTA in D-PBS and 4% paraformaldehyde (PFA) (v/v 1:1) were added into wells to fix cells for 15 min at room temperature. PFA was removed by centrifugation (5 min, 3000 rpm, 4° C.) and cells were resuspended with 5 mM EDTA in D-PBS. Then the cellular A680-associated fluorescence signal was quantified using an Attune™ NxT flow cytometer (Thermo Fisher Scientific) equipped with Attune™ NxT v3.1.2. Experimental data (experimental triplicates) were fitted with GraphPad Prism® software using a nonlinear fit to determine the apparent Ki inhibition constants.

Assay [3] has as its target T1, human transferrin receptor (hTfR) fused …. The assay can be described thus: flow cytometry on CHO-hTfR-EGFP cells, 1 hr at 4 C, anti-6His + Alexa647 anti-mouse; nonlinear fit. The procedure:
CHO-hTfR-EGFP cells were incubated 1 hr at 4° C. with various concentrations of the indicated compounds. Detection of VHHs was performed using a primary mouse anti-6His (1/1000) and an Alexa647-conjugated anti-mouse secondary antibody (1/400). Measurements of cell-surface signal associated with VHH were performed using flow cytometry. The results are expressed as the ratio of Alexa647-associated fluorescence intensity of test compounds to that of background fluorescence.

Assay [4] has as its target T3, rhesus monkey TfR ectodomain fused to a mouse IgG1 Fc fragment (rhesus monkey, UniProt I0FKY7 89-760).
T3 construct: extracellular domain; not shown: mouse IgG1 Fc fragment
The assay can be described thus: SPR, kinetic. In short, it runs like this: (§1)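 TfR–mouse Fc fusions, produced in-house, captured on HC 1500M or CM5 chips either directly or via immobilized anti-mouse IgG. VHHs injected in single-cycle or multiple-cycle kinetic mode on Biacore T200.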
Background: SPR reads the build-up and loss of mass on a sensor chip optically.

The target in assay [5] is T4, human TfR ectodomain fused to a mouse IgG1 Fc fragment (human, UniProt P02786 89-760).
T4 construct: extracellular domain; ectodomain fused to the N-terminal end of the Fc, made in-house; not shown: mouse IgG1 Fc fragment
T4 sequence (P02786 89-760): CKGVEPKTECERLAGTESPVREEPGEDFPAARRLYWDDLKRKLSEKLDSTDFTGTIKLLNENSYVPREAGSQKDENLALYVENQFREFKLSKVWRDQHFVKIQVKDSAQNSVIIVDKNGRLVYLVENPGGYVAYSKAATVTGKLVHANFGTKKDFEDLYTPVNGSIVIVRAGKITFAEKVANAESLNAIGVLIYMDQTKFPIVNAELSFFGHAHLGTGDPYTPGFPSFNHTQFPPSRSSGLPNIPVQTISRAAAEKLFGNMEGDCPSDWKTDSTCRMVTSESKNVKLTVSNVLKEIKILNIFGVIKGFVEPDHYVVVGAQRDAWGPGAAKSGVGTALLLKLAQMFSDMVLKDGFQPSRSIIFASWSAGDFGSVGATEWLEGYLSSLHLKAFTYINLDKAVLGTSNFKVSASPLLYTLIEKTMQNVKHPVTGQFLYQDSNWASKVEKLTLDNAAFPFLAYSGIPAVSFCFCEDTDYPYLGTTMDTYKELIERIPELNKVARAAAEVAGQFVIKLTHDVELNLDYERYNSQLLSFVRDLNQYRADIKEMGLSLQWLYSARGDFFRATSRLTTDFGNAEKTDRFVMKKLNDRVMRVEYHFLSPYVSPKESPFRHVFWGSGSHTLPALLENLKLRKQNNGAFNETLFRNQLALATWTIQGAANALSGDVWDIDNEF
Kind of assay: SPR, kinetic. Summed up: as §1

A word on the EC50 (read off the curve): it is the midpoint of the concentration-response curve. The Kd is a measure of binding affinity in units of concentration. A word on the koff: it is the rate constant with which the complex falls apart. What is called kon is the rate constant with which the complex forms.

T1 sequence (P02786 whole entry, the tested form may be a part): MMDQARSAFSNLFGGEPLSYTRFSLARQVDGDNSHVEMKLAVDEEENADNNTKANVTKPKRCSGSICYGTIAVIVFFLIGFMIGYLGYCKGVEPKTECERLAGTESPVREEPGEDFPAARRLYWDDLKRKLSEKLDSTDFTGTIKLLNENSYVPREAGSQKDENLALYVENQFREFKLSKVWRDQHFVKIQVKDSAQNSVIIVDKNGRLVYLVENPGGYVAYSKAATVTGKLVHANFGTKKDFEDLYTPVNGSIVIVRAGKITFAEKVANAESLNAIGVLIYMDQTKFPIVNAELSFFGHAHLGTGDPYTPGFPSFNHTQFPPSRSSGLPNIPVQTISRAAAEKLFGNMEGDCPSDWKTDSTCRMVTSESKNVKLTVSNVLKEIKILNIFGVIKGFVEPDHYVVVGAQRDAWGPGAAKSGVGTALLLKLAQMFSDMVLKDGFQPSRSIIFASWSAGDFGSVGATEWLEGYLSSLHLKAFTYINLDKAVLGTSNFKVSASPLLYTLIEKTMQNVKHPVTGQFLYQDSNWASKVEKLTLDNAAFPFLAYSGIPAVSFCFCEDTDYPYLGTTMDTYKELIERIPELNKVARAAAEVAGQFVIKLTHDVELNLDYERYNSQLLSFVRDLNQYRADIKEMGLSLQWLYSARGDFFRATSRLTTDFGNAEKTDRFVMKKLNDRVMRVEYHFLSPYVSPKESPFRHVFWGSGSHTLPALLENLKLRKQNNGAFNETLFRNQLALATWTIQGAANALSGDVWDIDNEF

B1: VHH A (C5) (VHH)
VHH: EVQLVESGGGVVQPGGSLKLSCVASGTDFSINFIRWYRQAPGKQREFVAGFTATGNTNYADSMKGRFTISRDNTKNAVYLQIDSLKPEDTAVYYCYMLDKWGQGTQVTVSS
notes: form with the C-terminal myc-His6 tag (x = 1), since the VHHs were detected with anti-6His or anti-cMyc; the same holds for m12 to m126
Regarding B1, the “EC50 (read off the curve)” value in assay [1] was approximately 5 nM. The same molecule showed a Ki in assay [2] of 319 nM. The Kd in assay [3] turned out to be 5.15 nM. Also, in assay [4], the Kd worked out at 5.35 nM, the koff was determined as 0.00774 s⁻¹ and the kon is 1.55e+06 M⁻¹ s⁻¹. In assay [5], this molecule had a Kd of 0.206 nM, a koff of 0.000179 s⁻¹ and a kon of 665000 M⁻¹ s⁻¹.

Values taken from patent US20230414780A1 (VECT HORUS, published 2023).
